System: T1, Cc1cc(=O)oc2c(F)c(OP(=O)(O)O)c(F)cc12
T1 construct: Full-length human PTPN6 with an N-terminal hexahistidine (His6) tag
Test: Michaelis-Menten kinetics, fluorescence (Km)
Assay type: biochemical, Homo sapiens

PTPN6 (Homo sapiens)
Km: 86.26 µM
